Measured values reported in patent publication US20230136301A1, “Corticosteriod Reduction in Treatment with Anti-CD38 Antibody” (Janssen Biotech, Inc., priority 2021, published 2023).
Values joined by “and” are separate entries in the source; they are usually repeats but may differ in a detail not shown here. Identical values can stand only once.

System: patients with RRMM
Assay: PAVO Part 3: treatment-emergent adverse events with DARA SC and corticosteroid tapering

In the case of “DARA SC: 1,800 mg daratumumab co-formulated with 30,000 U rHuPH20 (2,000 U/mL, 15 mL), manual subcutaneous injection”, the “Grade ≥3 TEAEs, participants” value (1-week taper) is reported as 33.3%, the “Nausea, participants” value (1-week taper) is reported as 16.7% and the Nervous system disorders (1-week taper) is reported as 16.7%. For the same substance, the “Anemia, any grade TEAE” value (1-week taper n=12) was 4 (33.3) n (%) and 4 (33.3%) n (%), the “Anemia, grade ≥3 TEAE” value (1-week taper n=12) was 2 (16.7%) n (%) and 2 (16.7) n (%) and the “Any TEAE” value (1-week taper n=12) was 12 (100)^ n (%) and 12 (100.0%) n (%). For the same substance, the “Any grade ≥3 TEAE” value (1-week taper n=12) was 4 (33.3) n (%) and 4 (33.3%) n (%), the “Arthralgia, any grade TEAE” value (1-week taper n=12) was 3 (25.0) n (%) and 3 (25.0%) n (%) and the “Asthenia, any grade TEAE” value (1-week taper n=12) was 4 (33.3) n (%) and 4 (33.3%) n (%). For the same substance, the “Back pain, TEAE” value (1-week taper n=12) was 2 (16.7%) n (%), the “Blood and lymphatic system disorders (SOC), TEAE” value (1-week taper n=12) was 4 (33.3%) n (%) and the “Blood and lymphatic system disorders (SOC), grade 3 or higher TEAE” value (1-week taper n=12) was 2 (16.7%) n (%). For the same substance, the “Bone pain, TEAE” value (1-week taper n=12) was 2 (16.7%) n (%), the “Bone pain, grade ≥3 TEAE” value (1-week taper n=12) was 1 (8.3) n (%) and 1 (8.3%) n (%) and the “Chills, TEAE” value (1-week taper n=12) was 2 (16.7%) n (%). For the same substance, the “Constipation, TEAE” value (1-week taper n=12) was 2 (16.7%) n (%), the “Cough, any grade TEAE” value (1-week taper n=12) was 0 n (%) and the “Decreased appetite, TEAE” value (1-week taper n=12) was 1 (8.3%) n (%). For the same substance, the “Diarrhea, any grade TEAE” value (1-week taper n=12) was 4 (33.3) n (%) and 4 (33.3%) n (%), the “Dizziness, any grade TEAE” value (1-week taper n=12) was 0 n (%) and the “Erythema, any grade TEAE” value (1-week taper n=12) was 0 n (%). The “Fatigue, any grade TEAE” value (1-week taper n=12) was 1 (8.3) n (%) and 1 (8.3%) n (%), the “Gastrointestinal disorders (SOC), TEAE” value (1-week taper n=12) was 8 (66.7%) n (%) and the “General disorders and administration site conditions (SOC), TEAE” value (1-week taper n=12) was 9 (75.0%) n (%). For the same substance, the “Headache, any grade TEAE” value (1-week taper n=12) was 1 (8.3) n (%) and 1 (8.3%) n (%), the “Lymphopenia, grade ≥3 TEAE” value (1-week taper n=12) was 1 (8.3) n (%) and 1 (8.3%) n (%) and the “Metabolism and nutrition disorders (SOC), TEAE” value (1-week taper n=12) was 1 (8.3%) n (%). For the same substance, the “Muscle spasms, any grade TEAE” value (1-week taper n=12) was 3 (25.0) n (%), the “Musculoskeletal and connective tissue disorders (SOC), TEAE” value (1-week taper n=12) was 8 (66.7%) n (%) and the “Musculoskeletal and connective tissue disorders (SOC), grade 3 or higher TEAE” value (1-week taper n=12) was 1 (8.3%) n (%). For the same substance, the “Nasopharyngitis, any grade TEAE” value (1-week taper n=12) was 1 (8.3) n (%) and 1 (8.3%) n (%), the “Nausea, any grade TEAE” value (1-week taper n=12) was 2 (16.7) n (%) and 2 (16.7%) n (%) and the “Nervous system disorders (SOC), TEAE” value (1-week taper n=12) was 2 (16.7%) n (%). For the same substance, the “Neutropenia, grade ≥3 TEAE” value (1-week taper n=12) was 0 n (%), the “Oropharyngeal pain, TEAE” value (1-week taper n=12) was 0 n (%) and the “Pain in extremity, any grade TEAE” value (1-week taper n=12) was 3 (25.0) n (%) and 3 (25.0%) n (%). For the same substance, the “Patients with a serious TEAE” value (1-week taper n=12) was 4 (33.3%) n (%), the “Peripheral edema, any grade TEAE” value (1-week taper n=12) was 4 (33.3) n (%) and 4 (33.3%) n (%) and the “Pyrexia, any grade TEAE” value (1-week taper n=12) was 3 (25.0) n (%) and 3 (25.0%) n (%). The “Respiratory, thoracic and mediastinal disorders (SOC), TEAE” value (1-week taper n=12) was 1 (8.3%) n (%), the “Skin and subcutaneous tissue disorders (SOC), TEAE” value (1-week taper n=12) was 0 n (%) and the “Vomiting, TEAE” value (1-week taper n=12) was 2 (16.7%) n (%). For the same substance, the “TEAEs with an outcome of death” value (1-week taper, neither treatment-related) was 2 participants, the “Grade 5 TEAEs” value (1-week taper, staphylococcal pneumonia and pulmonary embolism) was 2 (16.7%) n (%) and the “Grade ≥3 TEAEs, participants” value (2-week taper) was 53.3%. The “Nausea, participants” value (2-week taper) was 20%, the Nervous system disorders (2-week taper) was 26.7% and the “TEAEs with an outcome of death” value (2-week taper) was “No deaths”. The “Anemia, any grade TEAE” value (2-week taper n=15) was 2 (13.3) n (%) and 2 (13.3%) n (%), the “Anemia, grade ≥3 TEAE” value (2-week taper n=15) was 1 (6.7) n (%) and 1 (6.7%) n (%) and the “Any TEAE” value (2-week taper n=15) was 15 (100)^ n (%) and 15 (100.0%) n (%). For the same substance, the “Any grade ≥3 TEAE” value (2-week taper n=15) was 8 (53.3) n (%) and 8 (53.3%) n (%), the “Arthralgia, any grade TEAE” value (2-week taper n=15) was 4 (26.7) n (%) and 4 (26.7%) n (%) and the “Asthenia, any grade TEAE” value (2-week taper n=15) was 2 (13.3) n (%) and 2 (13.3%) n (%). For the same substance, the “Back pain, TEAE” value (2-week taper n=15) was 3 (20.0%) n (%), the “Blood and lymphatic system disorders (SOC), TEAE” value (2-week taper n=15) was 3 (20.0%) n (%) and the “Blood and lymphatic system disorders (SOC), grade 3 or higher TEAE” value (2-week taper n=15) was 3 (20.0%) n (%). The “Bone pain, TEAE” value (2-week taper n=15) was 3 (20.0%) n (%), the “Bone pain, grade ≥3 TEAE” value (2-week taper n=15) was 1 (6.7) n (%) and 1 (6.7%) n (%) and the “Chills, TEAE” value (2-week taper n=15) was 1 (6.7%) n (%). The “Constipation, TEAE” value (2-week taper n=15) was 3 (20.0%) n (%), the “Cough, any grade TEAE” value (2-week taper n=15) was 4 (26.7) n (%) and 4 (26.7%) n (%) and the “Decreased appetite, TEAE” value (2-week taper n=15) was 1 (6.7%) n (%). The “Diarrhea, any grade TEAE” value (2-week taper n=15) was 3 (20.0) n (%) and 3 (20.0%) n (%), the “Dizziness, any grade TEAE” value (2-week taper n=15) was 1 (6.7) n (%) and 1 (6.7%) n (%) and the “Erythema, any grade TEAE” value (2-week taper n=15) was 4 (26.7) n (%) and 4 (26.7%) n (%). The “Fatigue, any grade TEAE” value (2-week taper n=15) was 4 (26.7) n (%) and 4 (26.7%) n (%), the “Gastrointestinal disorders (SOC), TEAE” value (2-week taper n=15) was 7 (46.7%) n (%) and the “General disorders and administration site conditions (SOC), TEAE” value (2-week taper n=15) was 10 (66.7%) n (%). For the same substance, the “Headache, any grade TEAE” value (2-week taper n=15) was 1 (6.7) n (%) and 1 (6.7%) n (%), the “Lymphopenia, grade ≥3 TEAE” value (2-week taper n=15) was 0 n (%) and the “Metabolism and nutrition disorders (SOC), TEAE” value (2-week taper n=15) was 4 (26.7%) n (%). The “Muscle spasms, any grade TEAE” value (2-week taper n=15) was 0 n (%), the “Musculoskeletal and connective tissue disorders (SOC), TEAE” value (2-week taper n=15) was 9 (60.0%) n (%) and the “Musculoskeletal and connective tissue disorders (SOC), grade 3 or higher TEAE” value (2-week taper n=15) was 1 (6.7%) n (%). The “Nasopharyngitis, any grade TEAE” value (2-week taper n=15) was 5 (33.3) n (%) and 5 (33.3%) n (%), the “Nausea, any grade TEAE” value (2-week taper n=15) was 3 (20.0) n (%) and 3 (20.0%) n (%) and the “Nervous system disorders (SOC), TEAE” value (2-week taper n=15) was 4 (26.7%) n (%). For the same substance, the “Neutropenia, grade ≥3 TEAE” value (2-week taper n=15) was 3 (20.0) n (%) and 3 (20.0%) n (%), the “Oropharyngeal pain, TEAE” value (2-week taper n=15) was 3 (20.0%) n (%) and the “Pain in extremity, any grade TEAE” value (2-week taper n=15) was 1 (6.7) n (%) and 1 (6.7%) n (%). For the same substance, the “Patients with a serious TEAE” value (2-week taper n=15) was 6 (40.0%) n (%), the “Peripheral edema, any grade TEAE” value (2-week taper n=15) was 0 n (%) and the “Pyrexia, any grade TEAE” value (2-week taper n=15) was 2 (13.3) n (%) and 2 (13.3%) n (%). For the same substance, the “Respiratory, thoracic and mediastinal disorders (SOC), TEAE” value (2-week taper n=15) was 8 (53.3%) n (%), the “Skin and subcutaneous tissue disorders (SOC), TEAE” value (2-week taper n=15) was 5 (33.3%) n (%) and the “Vomiting, TEAE” value (2-week taper n=15) was 2 (13.3%) n (%). The “Grade 5 TEAEs” value (2-week taper, general physical health deterioration) was 1 (6.7%) n (%) and the “Grade ≥3 TEAEs, participants” value (3-week taper) was 60%.
